From the nanobody polyreactivity screen of Harvey et al. (2022) come the findings set out here.

The nature of the data set: yeast display, Sf9 membrane polyspecificity reagent, FACS + sequencing; frameworks hold sequencing errors. In a few lines:
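In a synthetic yeast display library (Saccharomyces cerevisiae BJ5465), nanobody expression was induced with galactose for 36–48 hours. FACS gates were set low and high (top ~1%) using anti-HA fluorescence for expression and streptavidin fluorescence for binding of the Sf9 membrane reagent. Each polyreactivity label is drawn from the gate of origin.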
“QVQLVESGGGLVQAGGSLRISCAASGLTSYSYAMGWYRQAPGKERELVAAITVNGGRTYYADSVKGRFTISRDNAKNTVYLQMNSLKPEDTAVYYCAAREVTGRPRSYYYWGQGTQVTVSS”: the “polyreactivity (PSR sort gate)” value is listed as “low polyreactivity”.

Turning to “QVQLVESGGGLVQAGGSLLISCAASGSIFTCYAMGWYRQAPGKERELVAASTRGGSTYADSEKGRFTISRDNAKNTVYLQRKSLIPDVTGVYYCNAVYGVYDFKYWGQGTQVSVSS”, the “polyreactivity (PSR sort gate)” value is reported as “low polyreactivity”. In the case of “QVQLVESGGGLVQAGGSLRLSCDASGSIFDGYGMGWYRQAPGKERELVASITCNDGSTYYADSVKGRFTISRDNANNTFYLQMNSLKPEDTAVYYCASDQWGYEYDYWGQGTQVTVSS”, the “polyreactivity (PSR sort gate)” value is on record as “low polyreactivity”.

As for “QVQLVESCGGLVQAGGSLRLSCAASRLIFGYYAMGWYRQAPVKERELVASISSGGRTYYADSVKGRFTISRDNAKNTVNLQMNSLKPEDTAVYYCNAVKGWFVYEYDYWGQGTQVTVSS”, the “polyreactivity (PSR sort gate)” value is “low polyreactivity”.

“QVQLVESGGGLVQAGGSLRLSCAASGRIFYYYAMGWYRQAPGKEREIVAAISASGGSTYADSVKGRFTISRDNAKNTVYLQMNSLKPEDTAVYYCATVYYYTYAWLDLYGGYTFEYWGQGTQVTVSS”: the “polyreactivity (PSR sort gate)” value is reported as “low polyreactivity”.

Consider “QVQLVESGGGLVQAGGSLRLSCADSGSIFYVYAMGWYRQAPGKERELVATISSSAGSTYYADSVKGRFTISRDNAKNTVYLQMNSLKPEDTAVYYCNADSFLSWVYRYVYYGSGYWGQGTQVTVSS”, for which the “polyreactivity (PSR sort gate)” value is listed as “low polyreactivity”.

On to “QVQLVESGGGLVQAGGSLRLSCSASGSTIRDYAMGWYRQAPGKERELVAVIDNSGGRTYYADSVKGRFTISRDNAKNTVYLQMNSLKPEDTAVYYCNTRRIAQYGYWGQGTEVTVSS”, for which the “polyreactivity (PSR sort gate)” value is “high polyreactivity”.

Consider “QVQLVESGGGLVQAGGSLRLSCAASGRIFYFYAMGWYRQAPGKERELVAAIDWSGGSTYYADSVKGRFTISRDNAKNTVYLQMNSLKPEDTAVYSCAARWRSKGVQYYYWGQGSQVTVSS”, for which the “polyreactivity (PSR sort gate)” value is “high polyreactivity”.

As to “QVQLVESGGGLVQAGGSLRLSCAASGSIFGRYAMGWYRQAPGKERELVAAISRTGVSTYYADSVKGRFTISRDNAKNTVYLQMNSLKPEDTAVYYCNAVRLSWQNTYYYWGQGTQVTVSS”, the “polyreactivity (PSR sort gate)” value is on record as “high polyreactivity”. For “QVQLVESGGGLVQAGGSLRLSCAASGRTLRGYAMGWYRQAPGKERELVAAITWSGGSTYYADSVKGRFTISRDNAKNTVYLQMNSLKPEDTAVYYCNARSYPDLYDYWGQGTQVTVSS”, the “polyreactivity (PSR sort gate)” value is listed as “low polyreactivity”. As for “QVQLVESGGGLVQAGGSLRLICAASGSIFADYAMGWYRQAPGKERELVAAITGSGGRTYYADSVKGRFTISRDNAKNTVYLQMNSLKPEDTAVYYCAAYQVVWDPYTRYDYWGQGTQVTVSS”, the “polyreactivity (PSR sort gate)” value is on record as “low polyreactivity”.

Turning to “QVQLVESGGGLVQAGGSLRLSCASSGFTFSLYARGWYSQAPGKEMELVAAISQRGGSTYYADSVKGRFTISRDNAKNTDYLQMNSLKPEDTAVYYCNDYAQVSYGTYDYWGQGTQVTVSS”, the “polyreactivity (PSR sort gate)” value was “high polyreactivity”.

With “QVQLVESGGGLVQAGGSLRLSCAASGSTFDTYAMGWYRQAPGKERELVAVITTGGSTYYADSVKGRFTISRDNAKNTVNLQMNSLKPEDTAVYYCNAGYSVSRRRKYGYWGQGTQVTVSS”, the “polyreactivity (PSR sort gate)” value is “high polyreactivity”. As to “QVQLQESGGGLVQAGGTITLGYDMGWYRQAPGKEREFVAGIDTGAITYYADSVKGRFTNSRDNAKNTVYLQMNSLKPEDTAVYYCAAILTHTYAHSYWGQGTQVTVSS”, the “polyreactivity (PSR sort gate)” value is “high polyreactivity”. In the case of “QVQLVESGGGLVQAGGSLRLSCAASGFTFDKNVMGWYRQAPGKERELVAAISVRGGTTYYADSVKGRFTISRDNAMNTVYLQMNSLKPEDTAVYYCAARAYGPPARYDSWGQGTQVTVSS”, the “polyreactivity (PSR sort gate)” value was “low polyreactivity”. For “QVQLVESGGGLVQAGGSLRLICAASGIIFGNNAMGRYRQAPGKERELVAAIRWSTGTTYYADSVKGRFTISRDNATNTVYLQMNSLKPEDTAVYYCAARLRREYGYWGQGTQVTVSS” the value was “high polyreactivity”; for “QVQLVESGGGLVQAGGSLRLSCAASGFTFGRYAMGWYRQAPGKERELVAAISRGGSSTYYADSVKGRFTISRDNAKNTVYLQMNSLKPEDNAVYYCNKVIIWARFDYWGQGTQVTVSS”, “high polyreactivity”. On to “QVQLVESGGGLLQAGGSLRLSCAASGYTFASNAMGWYRQAPGKERELVAAITRGGSTNYADSVKGRFTISRDNAKNTVYLQMNSLKPEDTAVYYCAAPRYRHTRKGGYWGQGTQLTVSS”, for which the “polyreactivity (PSR sort gate)” value is listed as “low polyreactivity”. Consider “QVQLVESGGGLVQAGGSLRLSCAASGRIFRYSAMGWYRQAPGKERELVAAISSDGSTDYADSVKGRFTISRDNAKNTVYLQMNSLKPEDTAVYYCAASVVSYGHDYWGQGTQVTVSS”, for which the “polyreactivity (PSR sort gate)” value is given as “low polyreactivity”.

Regarding “QVQLVESGGGLVQAGGSLRLSCAASGRIFYYNTMGWYRQAPGKERELVAAITTNGGSTYYADSVKGRFTISRDNAKNTVYLQMNSLKPEDTAVYYCNRDRYPYYYAYNYWGQGTQVTVSS”, the “polyreactivity (PSR sort gate)” value was “low polyreactivity”. As to “QVQLVESGGGLVQAGGSLRLSCAASGSTFRYYAMGWYRQAPGKERELVAVISASGGTTYYADSVKGRFTISRDNAKNTVYLQMNSLKPEDTAVYYCAAREGWGFYYWGQGTQVTVSS”, the “polyreactivity (PSR sort gate)” value is “high polyreactivity”. Take “QVQLVESGGGLVQAGGSLRLSCAASGRISFRILWDGIDRRLGKKGSWLPLLTNTGSTNYADSVKGRFTISRDNAKNTVYLQIHSLKPEDTAVYDCNADPTGGSSYPAYFEYDYWGQGTQVTVSS”: the “polyreactivity (PSR sort gate)” value was “low polyreactivity”. As to “QVQLVESGGGLVQAGGSLRLSCAASGGIFAPNAKGWYRQAPGKEREFVAAISTGGGSTRYADSVKGRFTISRDNAKYTVYLQMNSLKPEDTAVYYCAATRVGVRRMDYWGQGTQVTVSS”, the “polyreactivity (PSR sort gate)” value is reported as “low polyreactivity”. “QVQLVESGGGLVQAGGSLRLSCAASGRIFYWYAMGWYRQAPGKERELVAAISSTGRTKYADSVKGRFTISRDNAKNTVDLQMNSLKPEDTAVYYCAKRRAAVNGRSDYYYWGQGTQVTVSS”: the “polyreactivity (PSR sort gate)” value was “high polyreactivity”. In the case of “QVQLQESGGGLVQAGGDLRLSCEASGNIFRDYIMGWYRQAPGKEREFVAGIDRGANTNYADSVKGRFTISRDNAKNTVYLQMNSLQPEDTAVYYCAVHTAIVPDFIYWGQGTQVTVRS”, the “polyreactivity (PSR sort gate)” value is listed as “low polyreactivity”. Take “QVQLVESGGGLVQAGGSLRLICAASGSTFGYYTMGWYRQAPGKERELVAAISSGGSRTNYADSVKGRFTISRDNAKNTVYLQMNSLIPEDTAVYYCAAGPVSYVRYGSEYDYWGQGTQVTVSS”: the “polyreactivity (PSR sort gate)” value was “high polyreactivity”. For “LVQHVESGGGLVKAGGSLRLTCSASGITFARYAMGWYRQAPGNERELVAAISRSVGSTYADSVKGRFTTSRDNAKNTVYLKMNSLKPEDTAVYYCHARYKSRLYPRYDYWGQGTQVTVSS” the value was “high polyreactivity”; for “QVQLVESGGGLVQAGGSLRLSCAASGSIFYYNAMGWYRQAPGKERELVATITSAVSTNYADSVKWRFTISRDNAKNTVYLQMNSLKPEDTAVYYCAADVVYISGYDYWGQGTQVTVSS”, “low polyreactivity”; for “QVQLVESGGGLVQAGGSLRLTCAASGFTIYLYTMGWYRQAPGKERELVATISWSGGSTYYADSVKGRFTISRDNAKNTVYLHMNSLKPEDTAVYYCAKAYNGRYTWRYDYWGQGTQVTVSS”, “high polyreactivity”.

“QVQLVESGGGLVQAGGSLRLSCAAYGLTFPWNAMGWYRQSPGKERELVAAITSRGGNTYYADSVKGRFTISRDNAKNTVYLQMNSLKPEDTAVYYCAARQYWSYRRYDYWGQGTQVTVSS”: the “polyreactivity (PSR sort gate)” value was “high polyreactivity”. Consider “QVQLVESGGRLVQAGGSLRLSCAASGRIFYNYSMGWYRQAPGKERELVATIRYRGGSTYYADSVKGRFTISRDNAKNTVYLQMNSLKPEDTAVYYCAARFNYNRDYPYYSWGQGTQVNVSS”, for which the “polyreactivity (PSR sort gate)” value is reported as “high polyreactivity”.

For “QVQLVESGGGLVQAGGSLRLSCAASGSIIGNYAMGWYREAPGKERELVAAISWSGGSTYYADSVKGRFTISRDNAKNTVYLQMNSLKPEDTAVYYCAAVDYYRYRSDYDYWGQGTQVTVSS”, the “polyreactivity (PSR sort gate)” value was “low polyreactivity”. “QVHLQESGGGMVQAGGSLRLSCAESGNIFLGDTMGWYRQPPGKEREFVAGIARGGNPYYADSLKGRFTISRNNAKNTVYLQKNSLKPEDTAVHYCAFLRSHASDYIYWGQGTQVTVSS”: the “polyreactivity (PSR sort gate)” value is “low polyreactivity”. The value for “QDQLVESGGGLVQAGGSLRLSCAASGITFPKYAMGWYRQAPGKERELVAAITKSGGSTYYADSVKGRFTISRDNAKNTVYLQMNSLKPEVTAVYYCAARPRYGEYDYWGQGTQVTVSS” was “high polyreactivity”; that for “QVQLVESGGGLVQAGCSHRLSCSSTGRTFYIYDMGRYRQAPGKERELVAVISWSGGDTNYADSVKGRFRISRDNAKNTVYLQMNSLKPEDTAVYYCAATRRDRRKSFTYRYDYWGQGTQVTVSS” was “high polyreactivity”; that for “QVQLVESGGGLVQAGGSLRLSCAASGSISYTYAMGWYRQAPGKERELVAAISYSEGITYYADSVKGRFTISRDNAKNTVYLQMNSLKPEDTAVYYCAVEGVYPYYDQSEYDYWGQGTQVTVSS” was “high polyreactivity”. For “QVQLVESGGGLVQSGGSLRLSCAASGGIFRYYVMGWYRQAPGKERELVAPINSGGTTYYEDSVKGRFTISRDNAKNTVYLQMNSLKPEDTAVYFCAAYYAGFGYNYWGQGTQVTVSS” the value was “low polyreactivity”; for “QVQLVESGGGLVQAGGSLRLSCAASGSTFDSYAMGWYRQAPGKEREFVAAITWSGGRTYYADCVKGRFTISRDNAKNTVYLQMNSLKPEDTAVYDCSATDPWGWDYYYWGQGSQVTVSS”, “low polyreactivity”.

For “QVQLVESGGGLVQAGGSLRLSCAASGRIFYPYAMGWYRQAPGKERELVAAITWSGGSTYYADSVKGRFTISRDNAKNTVYLQMNSLKPEDTAVYYCAKDHSYGAYYYWGQGTQVTVSS”, the “polyreactivity (PSR sort gate)” value is on record as “high polyreactivity”. “QDQDVESGGGLVQARGSLPLSCAASGSIFAWYAMGWYRQSPGKERELLAVITSSDGSTHYADSVKGRFTISRDNAKNSVYLQMISLKPEDTAVYYCAAFRSLRESKGYWWEYYSWGQGTQVTVSS”: the “polyreactivity (PSR sort gate)” value is recorded as “low polyreactivity”. For “QVQLVESGGGLVQAGGSLRLSCAASGITFPGYAMGSYRQAPGKERELVAVIRKSGTSTYYADSVKGRFTISRDNAKNTVYLQMNSLKPEDTAVYYCAAGGPSTLDDYWGQGTQVTVSS”, the “polyreactivity (PSR sort gate)” value is listed as “low polyreactivity”.
